Measurements from publication PMC12090727, “Cell binding, uptake, and infection of influenza A virus using recombinant antibody-based receptors” (Journal of Virology, 2025).

Columns and labels:
[1] = biological target: T1, hemagglutinin (HA) of A/Netherlands/602/2009 (pH1N1), on virions (Influenza A virus …, UniProt C3PSV2); assay: flow cytometry on cells; conditions: partners not purified
T1 construct: also called A/Netherlands/602/09; A/Neth/09

[2] = biological target: T2, HA-hFc probe: H1N1 A/California/04/2009 HA ectodomain fused to human IgG1 Fc (Influenza A virus A/California/04/2009 …, UniProt C3W5S1); assay: flow cytometry on cells; conditions: one partner purified
T2 construct: also called HA-probe; HA-human Fc probe; source: High Five insect cells (recombinant baculovirus), purified (HiTrap Protein G); not shown: Fc (human IgG1), C-terminal, kept

B1: fTfR-5J8 chimeric antibody-based receptor, stably expressed on A549 Slc35A1 KO cells (scFv, V domains shown)
VH: EVQLVESGPGLVKPSDILSLTCAVSGYSISSNYYWGWIRQPPGKGLEWIGSIYHSGSTYYKPSLESRLGISVDTSKNQFSLKLSFVSAADTAVYYCARHVRSGYPDTAYYFDKWGQGTLVTVSS
VL: SYVLTQPPSVSVAPGETARISCGGNNIGTKVLHWYQQTPGQAPVLVVYDDSDRPSGIPERFSGSNSGNTATLTISRVEVGDEADYYCQVWDISTDQAVFGGGTKLTVL
notes: also called LV-fTfR-5J8; LV-5J8-TfR
- binding result [1]: binds

B2: Flag-tagged fTfR-5J8 receptor, WT (Flag+) (scFv, V domains shown)
VH: B1 VH
VL: B1 VL
notes: also called WT receptor
- binding result [2]: binds
